In one experiment the target is ADAMTS-4 (human) (UniProt O75173). Description: cell-based or functional assay.
The target of the next experiment is ADAMTS-5 (human) (UniProt Q9UNA0). Description: cell-based or functional assay.
UniProt Q9UNA0, sequence (Q9UNA0 262-622 limits assumed): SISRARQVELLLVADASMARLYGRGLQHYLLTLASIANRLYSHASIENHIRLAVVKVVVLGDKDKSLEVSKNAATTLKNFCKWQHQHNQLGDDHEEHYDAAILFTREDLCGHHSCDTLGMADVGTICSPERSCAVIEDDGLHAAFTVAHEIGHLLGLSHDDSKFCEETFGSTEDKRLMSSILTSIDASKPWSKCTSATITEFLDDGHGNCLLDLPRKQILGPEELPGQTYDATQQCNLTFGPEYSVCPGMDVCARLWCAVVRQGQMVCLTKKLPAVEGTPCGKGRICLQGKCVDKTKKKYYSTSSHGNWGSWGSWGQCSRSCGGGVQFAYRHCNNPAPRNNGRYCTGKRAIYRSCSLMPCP

UniProt O75173, sequence (O75173 213-685 limits assumed): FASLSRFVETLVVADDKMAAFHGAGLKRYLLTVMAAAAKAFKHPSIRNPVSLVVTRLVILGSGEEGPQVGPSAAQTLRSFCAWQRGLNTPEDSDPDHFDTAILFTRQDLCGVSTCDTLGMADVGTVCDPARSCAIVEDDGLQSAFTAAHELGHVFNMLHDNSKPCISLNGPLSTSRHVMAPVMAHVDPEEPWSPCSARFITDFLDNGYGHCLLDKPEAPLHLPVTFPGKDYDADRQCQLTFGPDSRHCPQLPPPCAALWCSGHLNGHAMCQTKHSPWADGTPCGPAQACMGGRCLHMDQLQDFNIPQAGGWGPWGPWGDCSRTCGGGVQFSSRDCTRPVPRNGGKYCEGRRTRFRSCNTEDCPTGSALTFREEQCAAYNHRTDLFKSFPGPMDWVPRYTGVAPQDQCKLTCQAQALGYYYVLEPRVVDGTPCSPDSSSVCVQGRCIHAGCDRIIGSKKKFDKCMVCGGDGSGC

In the experiment with ADAMTS-4 (human), “purified human A2M (alpha-2-macroglobulin) (from UniProt P01023 24-1474)” had an IC50 needed to inhibit cartilage catabolism by the protease of 3 µg/mL. Also, in the experiment with ADAMTS-5 (human), the IC50 for inhibiting cartilage catabolism of bovine cartilage explants by 500 ng/ml ADAMTS-5 stood at 7 µg/mL, the IC50 needed to inhibit cartilage catabolism by the protease came out at 7 µg/mL and the Maximum inhibition of ADAMTS-5-induced cartilage catabolism is 90%.
